Assay results: patent US20160046721A1 (BEIJING SHENOGEN PHARMA GROUP, published 2016)
Where a chain is given by its changes, count along the chain named. Numbers in names are those of the source. Where “and” joins values, the source holds several entries; their conditions need not be identical. Equal entries are not always repeated. Values belong to the binder of their own block, whether it stands above or below them.

Legend:
[1] = molecular target: T1, GV27 peptide (ER-α36 c-terminal 27 aa) (human); assay: Biacore; table head says human ER-α36, analyte taken as the GV27 peptide of Example 5
T1 construct: also called 27 aa peptide (F domain); 27-amino acid peptide derived from the F domain of ER-α36
T1 peptide: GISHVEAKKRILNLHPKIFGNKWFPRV

[2] = molecular target: T1, GV27 peptide (ER-α36 c-terminal 27 aa); assay: ELISA on the coated 27-aa peptide, antibody in 5-fold dilutions from 10 ug/ml
[3] = molecular target: T1, GV27 peptide (ER-α36 c-terminal 27 aa); assay: as above
[4] = molecular target: T2, biotinylated GV27 peptide (human, biotinylated (site not stated)); assay: competition ELISA: plate coated with SNGhB1 (1 µg/ml), biotinylated GV27 added together with the soluble antibody, streptavidin-HRP; the sheet labels the soluble antibody SNGhB1, the legend paragraph 64 and paragraph 314 to paragraph 316 name SNGmB1
T2 construct: also called antigen (biotinylated GV27 peptide)
T2 peptide: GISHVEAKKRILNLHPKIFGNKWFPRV
Method: (§1) The antigen (biotinylated GV27 peptide) was added along with different amount of the competing mouse antibody, the ELISA plates were then allowed to incubate for equilibrium before wash. Streptavidin-HRP (Sigma, S2438, 1:5000) and TMB substrate (Biopanda, China) were added and OD450 was measured on a plate reader. IgG were tested in parallel as control antibody.

[5] = molecular target: T1, GV27 peptide (ER-α36 c-terminal 27 aa); assay: Biacore, antibody captured on anti-mouse Fc, GV27 injected
[6] = molecular target: T3, Fc-ER66 (fusion protein of Fc and ER-α66 ligand binding domain) (human, UniProt P03372 302-595, limits assumed); assay: ELISA, plate coated with Fc-ER66 at 1 ug/ml, HRP anti-mouse IgG Fc
T3 construct: also called Fc-ER-α66 protein; not shown: Fc
T3 sequence (looked up): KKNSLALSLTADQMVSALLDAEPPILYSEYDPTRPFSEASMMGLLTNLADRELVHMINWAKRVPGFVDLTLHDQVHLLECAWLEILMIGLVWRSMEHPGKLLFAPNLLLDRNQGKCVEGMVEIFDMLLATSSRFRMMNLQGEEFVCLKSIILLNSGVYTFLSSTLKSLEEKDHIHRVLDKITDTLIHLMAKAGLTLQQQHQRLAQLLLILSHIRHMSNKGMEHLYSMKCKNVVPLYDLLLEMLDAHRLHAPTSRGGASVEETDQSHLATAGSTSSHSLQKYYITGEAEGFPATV
Method: (§2) Five different proteins were used to coat the assay plate at 1 μg/ml.

[7] = molecular target: T4, Fc-LBD-D27 (Fc-LBD with the C-terminal 27 amino acids deleted) (human, UniProt P03372 339-456); assay: ELISA, plate coated with Fc-LBD-D27 at 1 ug/ml, HRP anti-mouse IgG Fc
T4 construct: also called Fc-LBD with 27 amino acids deleted; not shown: Fc
T4 chain: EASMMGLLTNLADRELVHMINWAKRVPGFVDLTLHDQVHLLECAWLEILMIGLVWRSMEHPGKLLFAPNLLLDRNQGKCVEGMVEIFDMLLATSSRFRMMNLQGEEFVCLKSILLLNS
Method: as §2

[8] = molecular target: T5, Fc-LBD (fusion protein of Fc and ER-α36 ligand binding domain including the C-terminal 27 amino acids) (human); assay: ELISA, plate coated with Fc-LBD at 1 ug/ml, SNGmB1 in 5-fold dilutions from 10 ug/ml, HRP anti-mouse IgG Fc
T5 construct: Expressed in E. coli BL21 (DE3); No linker is described; also called Fc-ER-α36 LBD; not shown: Fc fused to the N terminal of the LBD
T5 chain: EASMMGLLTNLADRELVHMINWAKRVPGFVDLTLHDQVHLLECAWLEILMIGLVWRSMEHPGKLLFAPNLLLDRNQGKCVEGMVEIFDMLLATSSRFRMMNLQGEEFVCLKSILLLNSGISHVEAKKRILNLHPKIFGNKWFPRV
Method: as §2

[9] = molecular target: T1, GV27 peptide (ER-α36 c-terminal 27 aa); assay: ELISA, plate coated with the 27-aa peptide at 1 ug/ml, SNGmB1 in 5-fold dilutions from 10 ug/ml, HRP anti-mouse IgG Fc
Method: as §2

[10] = molecular target: T2, biotinylated GV27 peptide; assay: competition ELISA: plate coated with hybridoma SNGmB1 (1 µg/ml), biotinylated GV27 added together with soluble SNGmB1, streptavidin-HRP
Method: as §1

[11] = molecular target: T2, biotinylated GV27 peptide; assay: competition ELISA: plate coated with humanized SNGmB1 ('hzdSNGmB1', 1 µg/ml), biotinylated GV27 added together with soluble SNGmB1, streptavidin-HRP
Method: as §1

B1: SNGHZD (C1L + C5H) (antibody, human IgG1, kappa, V domains shown)
VH: QVQLVQSGAEVKKPGASVKVSCKASGYTFTSHNMHWVRQAPGQGLEWIGAIHPVNGDTAYNQKFKGKATLTVDKSTSTAYLELSSLRSEDTAVYYCAREGYGSVDYWGQGTLVTVSS
VL: ETTVTQSPAFMSATPGDKVNISCITSTDIDDDMNWYQQKPGEAPILIISEGNTLRPGIPPRFSSSGYGTDFTLTINNIESEDAAYYFCLQSDNLPLTFGQGTKLEIKR
notes: Humanized antibody, human IgG1/kappa, expressed in 293E6 cells; also called humanized SNGmB1 variant C1L + C5H
Kd [1]: 0.164 nM
koff [1]: 0.000122 s⁻¹
kon [1]: 744000 M⁻¹ s⁻¹

B3: SNGHZD (C2L + C6H) (antibody, human IgG1, kappa, V domains shown)
VH: B1 VH with L81M
VL: B1 VL with P44A
notes: Humanized antibody, human IgG1/kappa; also called humanized SNGmB1 variant C2L + C6H
Kd [1]: 0.31 nM
koff [1]: 0.000398 s⁻¹
kon [1]: 1.28e+06 M⁻¹ s⁻¹

B6: SNGHZD (C3L + C6H) (antibody, human IgG1, kappa, V domains shown)
VH: B1 VH with L81M
VL: B1 VL with S64G
notes: Humanized antibody, human IgG1/kappa; also called humanized SNGmB1 variant C3L + C6H
Kd [1]: 0.271 nM
koff [1]: 0.00036 s⁻¹
kon [1]: 1.33e+06 M⁻¹ s⁻¹

B8: SNGmB1 antibody (antibody, mouse IgG2b, kappa)
light: ETTVTQSPASLSMTIGEKVTIRCITSTDIDDDMNWYRKKPGQPPKLLISEGNTLRPGVPSRFSSSGYGTDFVFTIENMLSEDVADYYCLQSDNLPLTFGAGTKLELKRADAAPTVSIFPPSSEQLTSGGASVVCFLNNFYPKDINVKWKIDGSERQNGVLNSWTDQDSKDSTYSMSSTLTLTKDEYERHNSYTCEATHKTSTSPIVKSFNRNEC
heavy: QAYLQQSGAELVRPGASVKMSCKASGYTFTSHNMHWIKQTPRQGLEWIGAIHPVNGDTAYNQKFKGKATLTVDKSSSTAYLQLSSLTSEESAVYFCAREGYGSVDYWGQGTTLTVSSAKTTPPSVYPLAPGCGDTTGSSVTLGCLVKGYFPESVTVTWNSGSLSSSVHTFPALLQSGLYTMSSSVTVPSSTWPSQTVTCSVAHPASSTTVDKKLEPSGPISTINPCPPCKECHKCPAPNLEGGPSVFIFPPNIKDVLMISLTPKVTCVVVDVSEDDPDVQISWFVNNVEVHTAQTQTHREDYNSTIRVVSTLPIQHQDWMSGKEFKCKVNNKDLPSPIERTISKIKGLVRAPQVYILPPPAEQLSRKDVSLTCLVVGFNPGDISVEWTSNGHTEENYKDTAPVLDSDGSYFIYSKLNMKTSKWEKTDSFSCNVRHEGLKNYYLKKTISRSPGK
notes: Mouse monoclonal antibody from a hybridoma, mIgG2b; Several lots were tested; also called HBD-B1; hybridoma derived SNGmB1
Kd [5]: ~0.1 nM
binding result [6]: no binding (tested: 10 ug/ml)
binding result [7]: no binding (tested: 10 ug/ml)
koff [1]: 0.000129 s⁻¹ and 0.000319 s⁻¹
kon [1]: 2.12e+06 M⁻¹ s⁻¹ and 1.76e+06 M⁻¹ s⁻¹
EC50 (read off the curve) [8]: ~0.05 µg/mL
EC50 (read off the curve) [9]: ~0.6 µg/mL
IC50 (read off the curve) [10]: ~0.5 µg/mL
IC50 (read off the curve) [11]: ~0.5 µg/mL

The remaining lines, values ahead:

Kd [1]: 0.105 nM
koff [1]: 0.000302 s⁻¹
kon [1]: 2.89e+06 M⁻¹ s⁻¹
EC50 (read off the curve) [2]: ~0.05 µg/mL
B2: SNGHZD (C1L + C6H) (antibody, human IgG1, kappa, V domains shown)
VH: B1 VH with L81M
VL: B1 VL
notes: Humanized antibody, human IgG1/kappa; also called humanized SNGmB1 variant C1L + C6H

Kd [1]: 0.1 nM
koff [1]: 0.000356 s⁻¹
kon [1]: 3.54e+06 M⁻¹ s⁻¹
B4: SNGHZD (C3L + C5H) (antibody, human IgG1, kappa, V domains shown)
VH: B1 VH
VL: B1 VL with S64G
notes: Humanized antibody, human IgG1/kappa; also called humanized SNGmB1 variant C3L + C5H

Kd [1]: 0.13 nM
koff [1]: 0.000488 s⁻¹
kon [1]: 3.46e+06 M⁻¹ s⁻¹
EC50 (read off the curve) [3]: ~0.04 µg/mL
B5: SNGHZD (C2L + C5H) (antibody, human IgG1, kappa, V domains shown)
VH: B1 VH
VL: B1 VL with P44A
notes: Humanized antibody, human IgG1/kappa; also called humanized SNGmB1 variant C2L + C5H

Kd [1]: 0.163 nM
koff [1]: 0.000283 s⁻¹
kon [1]: 1.74e+06 M⁻¹ s⁻¹
IC50 (read off the curve) [4]: ~0.5 µg/mL
B7: SNGhB1 chimeric antibody (antibody, human IgG1, kappa)
light: ETTVTQSPASLSMTIGEKVTIRCITSTDIDDDMNWYRKKPGQPPKLLISEGNTLRPGVPSRFSSSGYGTDFVFTIENMLSEDVADYYCLQSDNLPLTFGAGTKLELKRTVAAPSVFIFPPSDEQLKSGTASVVCLLNNFYPREAKVQWKVDNALQSGNSQESVTEQDSKDSTYSLSSTLTLSKADYEKHKVYACEVTHQGLSSPVTKSFNRGEC
heavy: not shown
notes: Chimeric antibody: mouse V regions with human kappa and IgG1 constant regions; also called chimeric SNGmB1; SNGhB1(20111118)
